In the supplement of paper PMC9170038:

Tested on: MS2 coat protein
Assay: apparent KD of MS2 coat protein; designed switch direction (-1 OFF switch, 1 ON switch): -1; higher = weaker reporter binding
Summary of the method: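 Stalled E. coli RNA polymerase transcribed designed RNA switches on Illumina chips, which were then titrated with SNAP-549-labelled MS2 coat protein, doubling from 0.7 or 1.5 nM to 3 µM. Steps lasted from 0.8–1.5 h at the lowest concentration to 10–20 min at the highest. The apparent KD is each design's median over clusters of curve-fitted normalised fluorescence.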

[1] = Eterna round: R95, input ligand: FMN 200 uM
[2] = Eterna round: R95, input ligand: microRNA oligo, concentration not stated
[3] = Eterna round: R95, input ligand: none
[4] = input ligand: microRNA oligo, concentration not stated

| Sequence | apparent KD of MS2 coat protein [1] [nM] | apparent KD of MS2 coat protein [2] [nM] | apparent KD of MS2 coat protein [3] [nM] | apparent KD of MS2 coat protein (input ligand: FMN 200 uM) [nM] | apparent KD of MS2 coat protein (input ligand: none) [nM] | apparent KD of MS2 coat protein [4] [nM] |
| --- | --- | --- | --- | --- | --- | --- |
| UUUUAGAGAGGAUAUAUAAUGUGAAACAUGAGGAUCACCCAUGUAAUAUUAUGGAUGUAAAUAGAAGGCUCAUUUA [JL-ex5-3.04] (puzzle: Exclusion 5) | 31.9 | 36.1 | 35.1 |  |  |  |
| GAUGUGUUAGGAUAUCGAAGUAUCUGUGCUGUGGCGAAUCACGAGAAGGAACAUGAGGAUCACCCAUGUGGUUG [Eternabot (L2) Solution 34] (Eterna round: R97, puzzle: Exclusion 4) |  |  |  | 68.9 | 63.9 |  |
| AAAUAGCUUGAGGAUAUUGGAUUGGAUUUAGUGCGAGAAGGCAAGACAUGAGGAUCACCCAUGUUGUGUUGGGA [EX6 #12] (Eterna round: R97, puzzle: Exclusion 6) |  |  |  | 72.7 | 55.1 |  |
| UUUUAACAUGAGGAUCACCCAUGUGAGGAUAUCGUAUUUUUUAUUAAUAUUAAUAAAACGAGAAGGCACAUUUU [JMF 17] (puzzle: Exclusion 1) |  | 86.1 |  |  |  |  |
| AUUAUGUGAGGAUAUUAGUAGUAAAUGAAUAAAAUUAUUACUGAGAAGGCACAUGAGGAUCACCCAUGUUCCUU [Mat - Exclusion 4 - Eli Mod - D6] (Eterna round: R97, puzzle: Exclusion 4) |  |  |  | 155 | 18.1 |  |
| CCGCCUGGAUAGGAUAUAGAGCUUUGAGAGGUCCUAGAAGGGUCCACAUGAGGAUCACCCAUGUCACAAUAUCG [Eternabot (L1) Solution 71] (Eterna round: R97, puzzle: Exclusion 6) |  |  |  | 28 | 29.6 |  |
| AUAUUUAGCUUUUUGUGAAACAUGAGGAUCACCCAUGUCCUCAUACCUGGACAUUUAAGUCUAGGAGCUCGUCUUAU [Last end dangle 2] (Eterna round: R97, puzzle: Sensor, turn-off variant 1) |  |  |  | 479 | 612 |  |
| UCGGCGCGAGGAUAUACGUUUGCUUUUUUGGGUCGUUGCGUACAUGAGGAUCACCCAUGUAGAAGGCGCGCCGC [Apr-15 SS2-25] (Eterna round: R96, puzzle: Exclusion 2) |  |  |  | 145 | 31.8 | 25.9 |
| AACCUGAGGCUUUGCUUUAGGUGUACAUGAGGAUCACCCAUGUAGGAUAUGGUAGGCUUUGCUUACCAGAAGGACAUUGGCGUA [Mat - Exclusion NG 3 - Mod of JL - D39] (Eterna round: R96, puzzle: Exclusion NG 3) |  |  |  | 144 | 77.2 | 66.4 |
| GGGAAGAACCAACAAGUAGACAUGAGGAUCACCCAUGUAGACUUCAUGUAGGAAAGGAAAGGAAGAGCUCGUCUUAU [AK-miRNA-r3-12] (Eterna round: R97, puzzle: Sensor, turn-off variant 1) |  |  |  | 21.6 | 28.5 |  |
| AUAAUAUAUGUAGGAUAUCUGCACGUUUAGUGCAGAGAAGGACAUGAGGAUCACCCAUGUAAUUAAGAUCAAUUAUUAAAUUAU [ENG1/4-B2] (Eterna round: R96, puzzle: Exclusion NG 1) |  |  |  | 59.5 | 40.8 | 29.5 |
| GCGCCAUCGUGAGAUGGCGUAAUUACAUGAGGAUCACCCAUGUAGGAUAUCGAUUGCUUUGCAGUCGAGAAGGGCAUGAUAAGU [JL ENG3 3.79] (Eterna round: R96, puzzle: Exclusion NG 3) |  |  |  | 49.6 | 43.3 | 34.6 |
| ACAUGAGGAUCACCCAUGUGAAAACAAUGGCUGACAAAGAGAUAGGAUAUAUGUGCAUAUCAAACAUAGAAGGGUCAUUACUGG [Deportation 87 - Jieux - Exclusion NG 3] (Eterna round: R96, puzzle: Exclusion NG 3) |  |  |  | 42.7 | 49.8 | 42.5 |
| CGUCUACCAAAACCGAACAACAUGAGGAUCACCCAUGUCACUCCGCCUUAAACCUACGGAGUAAAGUGGGCGCAAAA [Vesocegeer] (Eterna round: R96, puzzle: Sensor v2, turn-off variant) |  |  |  | 32.2 | 33.2 | 28.5 |
| CUUCUGUGAGGAUAUGUGAACCCGUGCCGAAAGGAUGGGAAACAGAAGGCACAUGAGGAUCACCCAUGUAAAAU [Isergeat] (puzzle: Exclusion 4) |  | 29.1 |  |  |  |  |
| AAUGGGCAAGCAUGAUCCCACAUGAGGAUCACCCAUGUGUUCGUCUUAUAGGCUGCUGAGGCUUUUGCCUCGGUGGC [LRO Sensor-off var1-03 loose mod of D91 from Mat747] (Eterna round: R97, puzzle: Sensor, turn-off variant 1) |  |  |  | 850 | 1370 |  |
| GUAAAGGUAGGAUAUACGAAGAAAAAGGGUAGAAUAAUAACACAUGAGGAUCACCCAUGUAGAAGGACCAAAUG [Mat - Exclusion 2 - Mod of my Tesla design - D5] (puzzle: Exclusion 2) | 65.7 | 26.5 | 32.4 |  |  |  |

| Sequence | apparent KD of MS2 coat protein [1] [nM] | apparent KD of MS2 coat protein [2] [nM] | apparent KD of MS2 coat protein [3] [nM] | apparent KD of MS2 coat protein (input ligand: FMN 200 uM) [nM] | apparent KD of MS2 coat protein (input ligand: none) [nM] | apparent KD of MS2 coat protein [4] [nM] |
| --- | --- | --- | --- | --- | --- | --- |
| AAGAGUGCAGGAUAUACUUGUUAGGACGGUUGGAUGAUUUGACAUGAGGAUCACCCAUGUAGAAGGGCAGAGAG [JR_Exclu2_Sub052] (puzzle: Exclusion 2) |  | 126 |  |  |  |  |
| CCGCUGCAAGGAUAUACUUGCGGUGGUGUUCGAGUUCUUCUACUUGAGGAUCACCCAAGUAGAAGGUGCAAAAC [jl-ex2.4.56 ViennaUCT mod] (Eterna round: R97, puzzle: Exclusion 2) |  |  |  | 12.6 | 13.5 |  |
| CCCAGUUAGUGAGGAUAUCAUACAUGAGGAUCACCCAUGUAAUAAAUGAGGAUUUCGGGUGUCUAUGAGAAGGCACGGAUAGGC [Ostracism 26 - Jieux - Exclusion NG 2] (Eterna round: R96, puzzle: Exclusion NG 2) |  |  |  | 27.2 | 30.4 | 22.2 |
| ACCUUACAUGAGGAUCACCCAUGUCAGGAUAUCUCGGGCGACCGAGGGCCGGCCGCCCAGAGAAGGGACGAGGA [Aainmaso] (puzzle: Exclusion 1) |  | 11.8 |  |  |  |  |
| AGCUAGAUAGGAUAUGCCCGGGAUAACAUGAGGAUCACCCAUGUGGCCGAAUCAUGUCCAGCAGAAGGGUUUGGGA [Mod of ViennaUCT 10 - Jieux - Exclusion 5] (Eterna round: R97, puzzle: Exclusion 5) |  |  |  | 18.2 | 17 |  |
| UCUCCCGCUCGAGGAUAUCCAUAGAGCAACUGAGGAGAAGGCGAGCGUCCUAAACAUGAGGAUCACCCAUGUGACCUCCCGAAC [Zabiledila] (Eterna round: R96, puzzle: Exclusion NG 1) |  |  |  | 55 | 39.1 | 41.2 |
| GAGUUAGCGUGAGGAAUAUACAUGAGGAUCACCCAUGUUAACAAAUAUAUUGCUCGUCUUAUAACAACAAUUAACUC [Alarm 8 - Jieux - Sensor, turn-off variant 1] (Eterna round: R97, puzzle: Sensor, turn-off variant 1) |  |  |  | 14.9 | 16.5 |  |
| AGUCAGGCGGUAGGAUAUCCAAACCGAGUGACCCUUUCAUAACAUGAGGAUCACCCAUGUCGGUGGGAGAAGGGCCGUAAGGCA [Mat - Exclusion NG 2 - Mod of JL - D66] (Eterna round: R96, puzzle: Exclusion NG 2) |  |  |  | 127 | 56.6 | 52.8 |
| CCUCGACAUGAGGAUCACCCAUGUCAGGAUAUUGUGUUUCGGGUUUUUUACCGUUAGGCAAGAAGGGAUGUGUG [LRO-Excl1-15] (puzzle: Exclusion 1) |  | 25.1 |  |  |  |  |
| UUUUUGUGAGGAUAUGCGUAGUAGAACAAUAGUACUACUACGUAGAAGGCACAUGAGGAUCACCCAUGUUCCUC [Fiskers Ex 4 Super stable 44 mod 15] (Eterna round: R96, puzzle: Exclusion 4) |  |  |  | 339 | 43.1 | 34.7 |
| AGUCAGGCGGUAGGAUAUCCAAAUCGAGUGACCCUCUCAUAACAUGAGGAUCACCCAUGUCGGUGGGAGAAGGGCCGUACGGCG [JL ViennaUCT Atra mod] (Eterna round: R96, puzzle: Exclusion NG 2) |  |  |  | 108 | 47.8 | 53.8 |
| AAAUUGGUAGAGGAUAUCGUACAGGAAACAAUGCGAGAAGGCUGCACAUGAGGAUCACCCAUGUUCAGUUGCGA [EX6 #40] (Eterna round: R97, puzzle: Exclusion 6) |  |  |  | 16.8 | 15.2 |  |
| AUAAUGUCAGGAUAUCAGUCGACUAGCUGCGGCUAGUCGACUGAGAAGGGACAUGAGGAUCACCCAUGUAGAUC [E4/18-A3] (Eterna round: R97, puzzle: Exclusion 4) |  |  |  | 244 | 992 |  |
| UUGCUACCUUGGUGCUCUACAAGCUUUUUGCUCGUUUUAACAUGAGGAUCACCCAUGUCUAGUGGAUCUGAUCGGGU [JL ViennaUCT Isreen mod 2] (puzzle: Sensor v3, turn-off variant 2) | 91.3 | 212 | 97.9 |  |  |  |
| AAAUGGCAAGGAUAUACAGUAAUGAGGCUUAUGUCCGCUAAACAUGAGGAUCACCCAUGUAGAAGGUGCAAAGA [Maarear] (Eterna round: R97, puzzle: Exclusion 2) |  |  |  | 69.1 | 42.4 |  |
| CAGUACUGAGGAUAUACAUGAGGAUCACCCAUGUUCUUCAGCUAGGAUACUAGCAAAGGUAGAAGGCAGUACUG [Mat - Exclusion 3 - Eli Mod - D28] (Eterna round: R97, puzzle: Exclusion 3) |  |  |  | 611 | 30.1 |  |
